The target in series [1] is Pcryo_0637, N-acetyltransferase from Psychrobacter cryohalolentis K5T, C-terminally His-tagged form used for crystallization (Psychrobacter cryohalolentis K5T (ATCC BAA-1226)) (UniProt Q1QD33). Put plainly: crystal structure; hanging drop, room temperature, 23-26% 2-methyl-2,4-pentanediol, 100 mM HEPES pH 7.5, with CoA or acetyl-CoA and UDP or UDP-sugar ligands (four complexes); space group R3, one subunit in the asymmetric unit, trimer formed about the crystallographic triad; 1.3-1.55 Å.

In a further series the target is T1, Pcryo_0638 (Psychrobacter cryohalolentis, UniProt Q1QD32).
T1 construct: full length; N-terminal His tag removed with rTEV; expressed in E. coli Rosetta2(DE3); dimer; residues Ala 5 to Asn 399 seen in crystal
T1 sequence (Q1QD32 1-400): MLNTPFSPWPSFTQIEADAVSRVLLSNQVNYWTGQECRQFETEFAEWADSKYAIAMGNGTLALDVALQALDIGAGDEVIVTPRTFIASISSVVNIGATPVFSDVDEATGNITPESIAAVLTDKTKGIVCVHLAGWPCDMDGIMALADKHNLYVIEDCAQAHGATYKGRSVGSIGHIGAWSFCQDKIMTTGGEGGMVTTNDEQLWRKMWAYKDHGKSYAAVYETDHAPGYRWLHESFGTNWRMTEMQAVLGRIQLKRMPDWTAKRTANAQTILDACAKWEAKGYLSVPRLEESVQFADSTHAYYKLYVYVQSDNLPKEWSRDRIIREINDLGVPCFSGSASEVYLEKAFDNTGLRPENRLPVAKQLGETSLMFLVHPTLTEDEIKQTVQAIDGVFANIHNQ
In words: X-ray crystal structure, […] Å. It is filed as binding. As to conditions: pH 8.0.

Substrate in the series “purified protein”: CC(=O)N[C@H]1[C@@H](OP(=O)(O)OP(=O)(O)OC[C@H]2O[C@@H](n3ccc(=O)[nH]c3=O)[C@H](O)[C@@H]2O)O[C@H](C)C(=O)[C@@H]1O
In words: purified protein. It is filed as biochemical, Psychrobacter cryohalolentis. The conditions noted are these: 50 mM HEPPS pH 8.0, 0.5 mM PLP, 40 mM sodium glutamate.

Series [2] deals with the molecule itself. Put plainly: crystal structure; hanging drop, room temperature, 18-22% PEG 8000, 200 mM tetramethylammonium chloride, 100 mM HEPPS pH 8.0, with 1 mM PLP and 5 mM UDP-2-acetamido-4-amino-2,4,6-trideoxy-D-glucose; space group P1, one dimer in the asymmetric unit; 1.3 Å.
Substrate in series [3]: CC(=O)N[C@H]1[C@@H](OP(=O)(O)OP(=O)(O)OC[C@H]2O[C@@H](n3ccc(=O)[nH]c3=O)[C@H](O)[C@@H]2O)O[C@H](C)[C@@H](N)[C@@H]1O
Put plainly: discontinuous HPLC assay of acetylated product, Michaelis-Menten fit. It is filed as biochemical, Psychrobacter cryohalolentis. As to conditions: 50 mM HEPPS pH 8.0, 1.5 mM acetyl-CoA, structure with CoA solved on C-terminally tagged protein. From the text: (§1) discontinuous HPLC assay of acetylated product, Michaelis-Menten fit on Pcryo_0637

Substrate in series [4]: CC(=O)SCCNC(=O)CCNC(=O)[C@H](O)C(C)(C)COP(=O)(O)OP(=O)(O)OC[C@H]1O[C@@H](n2cnc3c(N)ncnc32)[C@H](O)[C@@H]1OP(=O)(O)O
The series is described as above. It is filed as biochemical, Psychrobacter cryohalolentis. The conditions noted are these: 50 mM HEPPS pH 8.0, 8 mM UDP-2-acetamido-4-amino-2,4,6-trideoxy-D-glucose, structure with UDP solved on C-terminally tagged protein.
Excerpt: as §1

On to “Pcryo_0637, N-acetyltransferase from Psychrobacter cryohalolentis K5T, C-terminally His-tagged form used for crystallization (from UniProt Q1QD33 1-219) (enzyme)”, for which, in series [1], the stoichiometry N was determined as 3.

As to `Cc1ncc(COP(=O)(O)O)c(C=O)c1O` [PLP], the “X-ray crystal structure, 1.3 Å” value at Pcryo_0638 (covalent, external aldimine with the aminosugar product, half-occupancy) is “a mixture of the external aldimine and PMP was subsequently built into the electron density”.

`Cc1ncc(COP(=O)(O)O)c(CN)c1O` [PMP]: the “X-ray crystal structure, 1.3 Å” value on Pcryo_0638 (half-occupancy beside the external aldimine) was “a mixture of the external aldimine and PMP was subsequently built into the electron density”.

B1: Pcryo_0638, PLP-dependent aminotransferase from Psychrobacter cryohalolentis K5T (enzyme)
chain: MLNTPFSPWPSFTQIEADAVSRVLLSNQVNYWTGQECRQFETEFAEWADSKYAIAMGNGTLALDVALQALDIGAGDEVIVTPRTFIASISSVVNIGATPVFSDVDEATGNITPESIAAVLTDKTKGIVCVHLAGWPCDMDGIMALADKHNLYVIEDCAQAHGATYKGRSVGSIGHIGAWSFCQDKIMTTGGEGGMVTTNDEQLWRKMWAYKDHGKSYAAVYETDHAPGYRWLHESFGTNWRMTEMQAVLGRIQLKRMPDWTAKRTANAQTILDACAKWEAKGYLSVPRLEESVQFADSTHAYYKLYVYVQSDNLPKEWSRDRIIREINDLGVPCFSGSASEVYLEKAFDNTGLRPENRLPVAKQLGETSLMFLVHPTLTEDEIKQTVQAIDGVFANIHNQ
notes: Pcryo_0638, aminotransferase encoded by gene 0638 of Psychrobacter cryohalolentis K5T (ATCC BAA-1226); electron density continuous from Ala 5 to Asn 399; also called protein encoded by the 0638 gene; Pyro_0638; source: E. coli Rosetta2(DE3), purified (Ni-NTA, tag removed with rTEV protease); not shown: polyhistidine tag, N-terminal, cleaved
Consider B1, for which, in the series “purified protein”, the Km is given as 0.29 ± 0.04 mM, the kcat was found to be 1.9 ± 0.2 s⁻¹ and the kcat/Km came out at 6600 ± 700 M⁻¹ s⁻¹. The “stoichiometry N” value in series [2] is 2.

B2: Pcryo_0637 (Psychrobacter cryohalolentis K5) (protein)
chain: MSKVFAVYGASGCGRSLMPVANEQLRILEGDTDSQIVFIDDALDDNITVNGYTAMNYTKFKSIKNDDKFVLIAIANSSIRQKIADKLVKDGISLWTVQGMTTLIMDEVSIDAGAALSPFVTIAANVTIGKCFHANLYSYVEHDCIIGDYVTFAPRVSCNGNIHIHDHAYIGTGAVIKQGTPDKPLIIGKGAIVGMGAVVTKEVPAGAVVIGNPARLLNK
notes: full length; kinetics with N-terminal His tag removed by rTEV; crystals with noncleavable C-terminal tag LEHHHHHH; expressed in E. coli Rosetta2(DE3); trimer; domains Ser 2-Ser 93 and Leu 94-Ala 218
For the molecule B2, in series [3], the Km turned out to be 0.62 ± 0.05 mM, the kcat stood at 545 ± 40 s⁻¹ and the kcat/Km is 880000 ± 90000 M⁻¹ s⁻¹. Further, in series [4], the Km is on record as 0.070 ± 0.008 mM, the kcat was 1900 ± 200 s⁻¹ and the kcat/Km was determined as 2.7e+07 ± 3e+06 M⁻¹ s⁻¹.

Values taken from PMC8040287, “Characterization of two enzymes from Psychrobacter cryohalolentis that are required for the biosynthesis of an unusual diacetamido-D-sugar” (The Journal of Biological Chemistry, 2021).
